From patent US20140112936A1

Columns and labels:
[1] = biological target: gp41-inter (HIV-1 clade A isolate 92UG037.8); experiment: SPR, gp41-inter immobilized on CM5 chip, Fab as analyte, 1:1 Langmuir
[2] = biological target: GCN4-gp41-inter (HIV-1 clade A isolate 92UG037.8 (gp41 part)); experiment: SPR, GCN4-gp41-inter immobilized on CM5 chip, Fab as analyte, 1:1 Langmuir
[3] = biological target: gp41-inter (HIV-1 clade A isolate 92UG037.8); experiment: SPR, gp41-inter immobilized on CM5 chip, Fab as analyte, 1:1 Langmuir (single curve)
[4] = biological target: GCN4-gp41-inter (HIV-1 clade A isolate 92UG037.8 (gp41 part)); experiment: SPR, GCN4-gp41-inter immobilized on CM5 chip, Fab as analyte, 1:1 Langmuir (single curve)

Row | Substance | Kd [1] | koff [1] | kon [1] | Kd [2] | koff [2] | kon [2] | Kd [3] | koff [3] | kon [3] | Kd [4] | koff [4] | kon [4]
1 | 2F5 Fab | 0.415 nM | 0.00019 s⁻¹ | 457000 M⁻¹ s⁻¹ | 0.317 nM | 0.000158 s⁻¹ | 498000 M⁻¹ s⁻¹ |  |  |  |  |  | 
2 | 4E10 Fab |  |  |  |  |  |  | 8.85 nM | 0.000235 s⁻¹ | 26600 M⁻¹ s⁻¹ | 4.86 nM | 0.000237 s⁻¹ | 48800 M⁻¹ s⁻¹
3 | Z13e1 Fab | 97.7 nM | 0.00548 s⁻¹ | 56000 M⁻¹ s⁻¹ | 34 nM | 0.00289 s⁻¹ | 85000 M⁻¹ s⁻¹ |  |  |  |  |  | 
